Test results from patent publication US20170258835A1 (University of Pennsylvania, published 2017).

B1: C2177.CD19 bi-specific antibody (bispecific antibody)
chain: DIVLTQSPASLAVSLGQRATISCKASQSVDYAGDSYMNWYQQKPGQPPKLLIYAASNLESGIPARFSGSGSGTDFTLNIHPVEEEDAATYYCQQSNEDPYTFGGGTKLEIKGGGGSGGGGSGGGGSQVQLQQSGPELVKPGASVKISCKASGYAFSSSWMNWVKQRPGKGLEWIGRIYPGDGDTNYNGKFKGKATLTADKSSSTAYMQLSSLTSEDSAVYFCARSDYYGDYGFAYWGQGTLVTVSAGGGGSDIQMTQTTSSLSASLGDRVTISCRASQDISKYLNWYQQKPDGTVKLLIYHTSRLHSGVPSRFSGSGSGTDYSLTISNLEQEDIATYFCQQGNTLPYTFGGGTKLEITGGGGSGGGGSGGGGSEVKLQESGPGLVAPSQSLSVTCTVSGVSLPDYGVSWIRQPPRKGLEWLGVIWGSETTYYNSALKSRLTIIKDNSKSQVFLKMNSLQTDDTAIYYCAKHYYYGGSYAMDYWGQGTSVTVSS
notes: anti-CD27 (C2177) x anti-CD19; also called aCD27-aCD19
B2: M708.CD19 bi-specific antibody (bispecific antibody)
chain: DIQMTQSPSSLSASVGDRVTITCRASKSVSTSGYSFMHWYQQKPGKAPKLLIYVGSRLDYGVPSRFSGSGSGTDFTLTISSLQPEDFATYYCQHSRELPWTFGQGTKVEIKGGGGSGGGGSGGGGSEVQLLESGGGLVQPGGSLRLSCAASGFTFSSYTMSWVRQAPGKGLEWVSVIDHGGGSTHYPDSVKGRFTISRDNSKNTLYLQMNSLRAEDTAVYYCARHRGNPFDYWGQGTLVTVSSGGGGSDIQMTQTTSSLSASLGDRVTISCRASQDISKYLNWYQQKPDGTVKLLIYHTSRLHSGVPSRFSGSGSGTDYSLTISNLEQEDIATYFCQQGNTLPYTFGGGTKLEITGGGGSGGGGSGGGGSEVKLQESGPGLVAPSQSLSVTCTVSGVSLPDYGVSWIRQPPRKGLEWLGVIWGSETTYYNSALKSRLTIIKDNSKSQVFLKMNSLQTDDTAIYYCAKHYYYGGSYAMDYWGQGTSVTVSS
notes: anti-CD27 (M708) x anti-CD19; also called aCD27-aCD19
B3: M709.CD19 bi-specific antibody (bispecific antibody)
chain: DIVMTQSPDSLAVSLGERATINCKASQSVDYAGESFMNWYQQKPGQPPKLLIYAASNLESGVPDRFSGSGSGTDFTLTISSLQAEDVAVYYCQQSNEDPYTFGQGTKLEIKGGGGSGGGGSGGGGSEVQLVQSGAEVKKPGESLKISCKGSGYAFSSSWMNWVRQMPGKGLEWMGRIYAGDADTAYSPSFQGQVTISADKSISTAYLQWSSLKASDTAMYYCARSDYYGDYGFAYWGQGTLVTVSSGGGGSDIQMTQTTSSLSASLGDRVTISCRASQDISKYLNWYQQKPDGTVKLLIYHTSRLHSGVPSRFSGSGSGTDYSLTISNLEQEDIATYFCQQGNTLPYTFGGGTKLEITGGGGSGGGGSGGGGSEVKLQESGPGLVAPSQSLSVTCTVSGVSLPDYGVSWIRQPPRKGLEWLGVIWGSETTYYNSALKSRLTIIKDNSKSQVFLKMNSLQTDDTAIYYCAKHYYYGGSYAMDYWGQGTSVTVSS
notes: anti-CD27 (M709) x anti-CD19; also called aCD27-aCD19

What follows are binders tested against T1, CD27-Z CLEAR (UniProt P26842 20-260; P20963 52-163) (assay: flow cytometry, T cells co-electroporated with CD27-Z RNA and bi-specific antibody RNA, stained with anti-mouse IgG Fab (streptavidin APC) and anti-CD27 FITC; controls: CD27Z alone Q2 2.52 and Q3 9.39, NO EP Q2 0.089 and Q3 1.92).
T1 construct: also called CD27 CLEAR
T1 sequence (P26842 other isoform, or with tags, fused parts or gaps): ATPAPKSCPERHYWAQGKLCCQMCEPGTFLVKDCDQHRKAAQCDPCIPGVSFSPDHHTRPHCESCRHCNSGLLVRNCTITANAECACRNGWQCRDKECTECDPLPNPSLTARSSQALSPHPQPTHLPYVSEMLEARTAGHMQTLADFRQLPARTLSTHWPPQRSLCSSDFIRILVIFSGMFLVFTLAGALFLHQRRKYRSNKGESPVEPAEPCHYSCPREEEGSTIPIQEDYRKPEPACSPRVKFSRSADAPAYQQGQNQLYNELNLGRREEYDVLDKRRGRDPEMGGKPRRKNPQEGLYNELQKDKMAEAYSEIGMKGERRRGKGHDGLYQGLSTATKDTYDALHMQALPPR
For B1, the “percent of cells CD27+ mIgG Fab+ (Q2)” value was 13.8 and the “percent of cells CD27- mIgG Fab+ (Q3)” value was 84.2. In the case of B2, the “percent of cells CD27+ mIgG Fab+ (Q2)” value is reported as 7.58 and the “percent of cells CD27- mIgG Fab+ (Q3)” value is reported as 18.8. With B3 the “percent of cells CD27+ mIgG Fab+ (Q2)” value was 0.35 and the “percent of cells CD27- mIgG Fab+ (Q3)” value was 52.2.
